Data published in article PMC3646915 (Journal of molecular biology, 2013).
Positions count from the first letter of the chain named. Read-outs that look alike come from different tables or passages of the source.

T1: porcine mitochondrial malate dehydrogenase (porcine, UniProt P00346 25-338)
T1 sequence (looked up): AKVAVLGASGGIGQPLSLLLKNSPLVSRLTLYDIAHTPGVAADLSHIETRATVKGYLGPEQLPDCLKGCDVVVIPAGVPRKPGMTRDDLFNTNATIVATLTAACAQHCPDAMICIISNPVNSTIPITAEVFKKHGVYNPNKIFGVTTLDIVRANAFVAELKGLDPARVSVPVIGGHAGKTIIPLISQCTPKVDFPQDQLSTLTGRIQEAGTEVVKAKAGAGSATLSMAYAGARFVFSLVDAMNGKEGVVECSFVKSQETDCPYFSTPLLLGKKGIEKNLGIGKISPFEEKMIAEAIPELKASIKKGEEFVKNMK

B1: AtHsp18.5 truncation mutant 25–153 (domain or fragment, Arabidopsis thaliana, UniProt O64564 25-153, looked up)
chain: MNTFLDFPSPALFLSHHFPSLSREIFPQTSSSTVNTQLNWTETPTAHVFKAYLPGVDQDEVIAFVDEEGYLQICTGDNKFMSRFKLPNNALTDQVTAWMEDEFLVVFVEKDASSSPPQLPEIEENRNVR
B2: AtHsp18.5 tryptic fragment 11–150 (domain or fragment, Arabidopsis thaliana, UniProt O64564 11-150, looked up)
chain: RLSPGDRIWEPFELMNTFLDFPSPALFLSHHFPSLSREIFPQTSSSTVNTQLNWTETPTAHVFKAYLPGVDQDEVIAFVDEEGYLQICTGDNKFMSRFKLPNNALTDQVTAWMEDEFLVVFVEKDASSSPPQLPEIEENR
B3: AtHsp18.5 with N-terminal Strep II tag (natural protein, Arabidopsis thaliana, UniProt O64564 1-162, looked up)
chain: MSMIPISNRRRLSPGDRIWEPFELMNTFLDFPSPALFLSHHFPSLSREIFPQTSSSTVNTQLNWTETPTAHVFKAYLPGVDQDEVIAFVDEEGYLQICTGDNKFMSRFKLPNNALTDQVTAWMEDEFLVVFVEKDASSSPPQLPEIEENRNVRVVEITGDDD
B4: AtHsp18.5 with Cys98 substituted by Ala (natural protein, Arabidopsis thaliana, UniProt O64564 1-162, looked up)
chain: B3 chain with C98A
B5: AtHsp18.5 with C-terminal Strep II tag (natural protein, Arabidopsis thaliana, UniProt O64564 1-162, looked up)
chain: B3 chain
B6: PsHsp18.1, cytosolic class I sHSP from Pisum sativum (natural protein, UniProt P19243 1-158, looked up)
chain: MSLIPSFFSGRRSNVFDPFSLDVWDPLKDFPFSNSSPSASFPRENPAFVSTRVDWKETPEAHVFKADLPGLKKEEVKVEVEDDRVLQISGERSVEKEDKNDEWHRVERSSGKFLRRFRLPENAKMDKVKASMENGVLTVTVPKEEIKKAEVKSIEISG
B7: AtHsp18.5 tryptic fragment 11–153 (domain or fragment, Arabidopsis thaliana, UniProt O64564 11-153, looked up)
chain: RLSPGDRIWEPFELMNTFLDFPSPALFLSHHFPSLSREIFPQTSSSTVNTQLNWTETPTAHVFKAYLPGVDQDEVIAFVDEEGYLQICTGDNKFMSRFKLPNNALTDQVTAWMEDEFLVVFVEKDASSSPPQLPEIEENRNVR
B8: AtHsp18.5 tryptic fragment 48–153 (domain or fragment, Arabidopsis thaliana, UniProt O64564 48-153, looked up)
chain: EIFPQTSSSTVNTQLNWTETPTAHVFKAYLPGVDQDEVIAFVDEEGYLQICTGDNKFMSRFKLPNNALTDQVTAWMEDEFLVVFVEKDASSSPPQLPEIEENRNVR
B9: AtHsp18.5 tryptic fragment 12–153 (domain or fragment, Arabidopsis thaliana, UniProt O64564 12-153, looked up)
chain: LSPGDRIWEPFELMNTFLDFPSPALFLSHHFPSLSREIFPQTSSSTVNTQLNWTETPTAHVFKAYLPGVDQDEVIAFVDEEGYLQICTGDNKFMSRFKLPNNALTDQVTAWMEDEFLVVFVEKDASSSPPQLPEIEENRNVR

Assays:
[1] = target: the molecule itself; experiment: native MS
[2] = target: the molecule itself; experiment: native MS; remark: listed apart in the source
[3] = target: the molecule itself; experiment: native gel or EMSA
[4] = target: the molecule itself; experiment: native gel or EMSA + cross-linking + native MS + AUC
[5] = target: T1, porcine mitochondrial malate …; experiment: SEC
[6] = target: firefly luciferase (firefly, UniProt P08659 1-550 = luciferase); experiment: SEC
[7] = target: B2; experiment: native MS
[8] = target: B9; experiment: native MS
[9] = target: B7; experiment: native MS

Sequence of firefly luciferase (P08659 whole entry): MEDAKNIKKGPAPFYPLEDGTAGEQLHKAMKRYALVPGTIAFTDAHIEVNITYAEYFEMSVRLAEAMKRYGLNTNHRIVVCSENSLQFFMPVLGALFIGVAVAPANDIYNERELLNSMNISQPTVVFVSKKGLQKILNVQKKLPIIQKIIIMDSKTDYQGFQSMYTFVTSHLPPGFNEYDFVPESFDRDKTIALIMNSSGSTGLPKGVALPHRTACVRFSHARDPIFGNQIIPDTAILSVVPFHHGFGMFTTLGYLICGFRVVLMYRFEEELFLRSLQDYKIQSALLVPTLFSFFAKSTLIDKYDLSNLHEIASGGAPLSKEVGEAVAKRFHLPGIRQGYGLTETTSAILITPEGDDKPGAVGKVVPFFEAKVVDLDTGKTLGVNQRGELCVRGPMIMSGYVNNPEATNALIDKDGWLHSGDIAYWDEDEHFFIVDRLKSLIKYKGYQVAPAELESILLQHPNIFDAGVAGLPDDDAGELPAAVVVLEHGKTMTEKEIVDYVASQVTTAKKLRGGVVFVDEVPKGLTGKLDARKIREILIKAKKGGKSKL

## B1
[1]
  binding result: binds

## B2
[2]
  binding result: binds

## B3
[3]
  stoichiometry N: 2

## B4
[4]
  stoichiometry N: 2

## B5
[3]
  stoichiometry N: 2

## B6
[5]
  binding result: binds
[6]
  binding result: binds

## B7
[2]
  binding result: binds

## B8
[7]
  binding result: binds
[8]
  binding result: binds
[9]
  binding result: binds

## B9
[2]
  binding result: binds
